Data reported in patent EP4269437A1.
Values belong to the binder of their own block, whether it stands above or below them.

How the values were obtained:
PD-1 [1] = target: PD-1 (UniProt Q15116); assay: ELISA, TG1 supernatant on coated PD-1, anti-c-myc HRP
PD-1 [2] = target: PD-1 (UniProt Q15116); assay: blocking ELISA, clone supernatant, competitor PD-L1.hFc detected with anti-human Fc HRP

Sequence of PD-1 (Q15116 25-170 limits assumed): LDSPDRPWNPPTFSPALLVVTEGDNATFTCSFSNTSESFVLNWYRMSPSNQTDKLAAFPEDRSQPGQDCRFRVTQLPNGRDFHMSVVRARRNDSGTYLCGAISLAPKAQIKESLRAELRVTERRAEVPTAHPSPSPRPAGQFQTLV

- OD450, clone binding with PD-1 (PD-1 [1]): 2.13 OD450
- OD450, PD-L1 binding with PD-1 (PD-1 [2]): 2.43 OD450
B1: NB548 (VHH)
VHH: QLQLVESGGGLVQPGGSLRLSCTANGFSVGDYSMSWHRQPPGKEREVVATTARDSGSTFYAASVKGRFTISRDNAKNTVYLQMNSLKPEDTGVYYCRVNSQDYWGQGTQVTVSS

- OD450, clone binding with PD-1 (PD-1 [1]): 2.61 OD450
- OD450, PD-L1 binding with PD-1 (PD-1 [2]): 2.28 OD450
B2: NB154 (VHH)
VHH: QVQLVESGGGLVQAGDSLRLSCAASGGTFSGYGMGWFRQAPGKEREFVAGISRHGGSTGYSSSVKDRFTISRDNAKNTVDLQMNSLKPEDTAVYHCAAALRPDYGDSYVYTSTSNYEYWGQGTQVTVSS

- OD450, clone binding with PD-1 (PD-1 [1]): 2.62 OD450
- OD450, PD-L1 binding with PD-1 (PD-1 [2]): 2.25 OD450
B3: NB221 (VHH)
VHH: EVQLVESGGGLVQAGDSLRLSCAASGRTFSSVAMGWFRQAPGKEREFVAAISRSGGSAGYADSVKDRSTIARDNTKNTVYLQMNSLKPEDTAVYFCAASEYDFCSTHGCYDYWGQGTQVTISL

- OD450, clone binding with PD-1 (PD-1 [1]): 1.84 OD450
- OD450, PD-L1 binding with PD-1 (PD-1 [2]): 2.1 OD450
B4: NB159 (VHH)
VHH: QVQLVESGGGSVQAGDSLRISCEASGRTFMRYSMGWFRQASGKEREFVAAISWGGSSTYYADSVKGRFIISRDNTKNTVFLQMNSLKPEDTAVYYCAADTNPSGSWDRPTNEAEYDYWGQGTQVTVSS

- OD450, clone binding with PD-1 (PD-1 [1]): 3.13 OD450
- OD450, PD-L1 binding with PD-1 (PD-1 [2]): 2.23 OD450
B5: NB222 (VHH)
VHH: QVQLVESGGGLVQAGGSLRLSCAASGGTFSNFNVGWFRQAPGKEREFVAASNWSAGTTHYSDSVKGRFTISRDNAANTAYLQMNSLRPDDTAVYYCNRVIRGTTYPDVYYGMDYWGKGTLVTVSS

- OD450, clone binding with PD-1 (PD-1 [1]): 2.04 OD450
- OD450, PD-L1 binding with PD-1 (PD-1 [2]): 2.37 OD450
B6: NB754 (VHH)
VHH: QLQLVESGGGLVQPGGSLRLSCAVSGFTFSSDAMNWYRQAPGKERELVASITIDGGSTNYADSVKGRFTISRDNAKNTLYLQMNSLKPEDTAVYYCNADRGIIIYGKTYWGQGTQVTVSS

- OD450, clone binding with PD-1 (PD-1 [1]): 3.12 OD450
- OD450, PD-L1 binding with PD-1 (PD-1 [2]): 2.39 OD450
B7: NB139 (VHH)
VHH: EVQVVESGGGLVQTGGSLRLSCAASGDTALISAMGWYRQAPGKERELVAALTNTGITYYADSVKGRFTISRDNAKNTVYLQMNSLKPEDTAVYYCNAGAPPPGGLGYDESDYWGQGTQVTVSS

- OD450, clone binding with PD-1 (PD-1 [1]): 2.84 OD450
- OD450, PD-L1 binding with PD-1 (PD-1 [2]): 2 OD450
B8: NB164 (VHH)
VHH: QVQLVESGGGLLQAGDSLRLSCIASGRTFSSYAMGWFRQAPGKEREFVAGINGNGRSQYYAEVVKDRFFISRDNAKNTVYLQMNSLKPEDTAVYYCAAEGHLGVPTVRSDEYDYWGQGTQVTVSS

- OD450, clone binding with PD-1 (PD-1 [1]): 2.78 OD450
- OD450, PD-L1 binding with PD-1 (PD-1 [2]): 0.715 OD450
B9: NB171 (VHH)
VHH: QVQLVESGGGLVQAGGSLRLSCAASGRTFSSYAMGWFRQALGKEREWIAGVSMSGRTTYYAAPVKDRFTISRDNAKNTVTLQMNSLKPEDTAVYYCAAGRAQAEIPIMRAQEYDSWGQGTQVTVSS

- OD450, clone binding with PD-1 (PD-1 [1]): 2.17 OD450
- OD450, PD-L1 binding with PD-1 (PD-1 [2]): 1.42 OD450
B10: NB734 (VHH)
VHH: QVQLVETGGGLVQAGGSLRLSCAASGDTILFSAVGWHRQAPGKERELVAAITNSGVTYYADSVKGRFSISRDNAKNTVYLQMNSLKPEDTAVYYCNAGAPPPGEFGYDESDYWGQGTQVTVSS

- OD450, clone binding with PD-1 (PD-1 [1]): 1.7 OD450
- OD450, PD-L1 binding with PD-1 (PD-1 [2]): 2.2 OD450
B11: NB755 (VHH)
VHH: QVQLVESGGGLVQAGGSLRLSCVDSGRTFSSYGMGWFRQAPGKEREFVAAVNWRNTTAYYADSAKDRFTISSDNAKNTVYLQMASLKPEDTGVYYCRPYSDYVSYDPTEYDSWGQGTQVTVSS

- OD450, clone binding with PD-1 (PD-1 [1]): 1.36 OD450
- OD450, PD-L1 binding with PD-1 (PD-1 [2]): 2.19 OD450
B12: NB532 (VHH)
VHH: QVQLVETGGGLVQAGGSLRLSCAASGRTFSSYNMGWFRQAPGKEREFVAAISWSGGSQGYAAAVKDRFTISRDNAKNTVYLQMNSLKAEDTAVYYCAAKYHSGSYYYTSIRPEEYDYWGQGTQVTVSS

- OD450, clone binding with PD-1 (PD-1 [1]): 2.9 OD450
- OD450, PD-L1 binding with PD-1 (PD-1 [2]): 2.13 OD450
B13: NB169 (VHH)
VHH: QVQLVESGGGLVPPGGSLRLSCAASGFTFSSYPMSWYRQAPGRKRDFVAMLTGAGGSTDYADSVKGRFTISRDNAKNTVYLQMNSLKPEDTAVYYCNAPAAMRDYGIDYWGKGTLVNVSS

- OD450, clone binding with PD-1 (PD-1 [1]): 1.3 OD450
- OD450, PD-L1 binding with PD-1 (PD-1 [2]): 2.25 OD450
B14: NB223 (VHH)
VHH: EVQLVESGGGLVQAGGSLRLSCAASGRTFSSYGMGWFRQAPGKEREFVAAVNWSNSSAYYADSVKDRFTISSDNAKSTIYLQMNSLKPEDTAVYYCRPYSDYVTYDPDDYDYWGQGTQVTVSS

- OD450, clone binding with PD-1 (PD-1 [1]): 1.03 OD450
- OD450, PD-L1 binding with PD-1 (PD-1 [2]): 2.47 OD450
B15: NB733 (VHH)
VHH: QVQLVESGGGLVQPGASLRLSCAAAGFTFSSWAMTWVRQAPGKGLEWVSAISSGSGEMADYADSVKGRFAISRDNAKNTLYLQMNNLQPEDTAMYYCAKGGYLTYANLGPGTQVTVSS

- OD450, clone binding with PD-1 (PD-1 [1]): 1.81 OD450
- OD450, PD-L1 binding with PD-1 (PD-1 [2]): 2.44 OD450
B16: NB735 (VHH)
VHH: EVQVVESGGGLVQPGGSLTLSCAVSGFTLDDYSIGWFRQAPGRAREAVSCTSNRDGSTYYEDSVKGRFTISRDNAKNTVYLQMNSLKPEDTAVYRCSTDCSLYGSTYSPDYWGQGTQVIVSS

- OD450, clone binding with PD-1 (PD-1 [1]): 2.63 OD450
- OD450, PD-L1 binding with PD-1 (PD-1 [2]): 0.994 OD450
B17: NB147 (VHH)
VHH: EVQVVESGGGVVQAGDSLRLSCVASGRTFSSVAMGWFRQAPGKEREFVAAISRSGGSAGYSDSVKDRSTISRDNAKNTVYLQMNSLKPEDTAVYFCAASELDFCSTLGCYDYWGQGIQVTFSS

- OD450, clone binding with PD-1 (PD-1 [1]): 2.84 OD450
- OD450, PD-L1 binding with PD-1 (PD-1 [2]): 2.56 OD450
B18: NB148 (VHH)
VHH: QVQLVESGGGLVQAGGSLRLSCAASGGTFSGSELGWFRQAPGKEREFVAGISRNGGTTGYSDSVKDRFTIARDNAKNTVYLQMNSLKPEDTAVYYCAAGLRAYYGDSYVDTMTENYNYWGQGTQVTVSS

- OD450, clone binding with PD-1 (PD-1 [1]): 3.29 OD450
- OD450, PD-L1 binding with PD-1 (PD-1 [2]): 2.05 OD450
B19: NB153 (VHH)
VHH: DVQLQESGGGLVQAGGSLRVSCAASGRTFSSYGMGWFRQAPGKERELVAAITNTGLTYYADSVEGRFTISRDAAKNTVYLQMNSLEPEDTAVYYCNAGAPPPGGLGYDESDYWGQGTLVTVSS

- OD450, clone binding with PD-1 (PD-1 [1]): 2.7 OD450
- OD450, PD-L1 binding with PD-1 (PD-1 [2]): 2.02 OD450
B20: NB170 (VHH)
VHH: EVQLVESGGGLVQAGDSLRLSCAASGGTFGRLETGWFRQAPGKEREFVAAISWDGETSYADSVKGRFTISRDNAKNTMALQMNRLTPEDTAVYFCAARVILRAYKYWGQGTQVTVSS

- OD450, clone binding with PD-1 (PD-1 [1]): 3.39 OD450
- OD450, PD-L1 binding with PD-1 (PD-1 [2]): 2.29 OD450
B21: NB166 (VHH)
VHH: EVQVQESGGGLVQAGGSLTLSCAASGDTILISSIGWYRQAPGKERELVAAITNSGLTYYPDSVKGRFTISRDNAKNTVYLQMNNLKPEDTAVYYCNAGGPPPGGLGYDESDYWGQGTQVTVSS
